Results as given in patent US20200332017A1 (SALUBRIS CHENGDU BIOTECH, published 2020).
Read-outs that look alike come from different tables or passages of the source.

Experiments:
[1] = target: T1, full length human CD40 (uniprot # P25942-1) on the membrane of 293T-CD40 cells (human, UniProt P25942 21-277); experiment: flow cytometry on 293T-CD40 cells, PE goat anti-human IgG Fc-gamma secondary antibody, MFI
T1 construct: also called cell surface CD40
Experimental: (§1) Following an incubation of 40 minutes at 4° C. in dark, cells were washed three times and resuspended in FACS buffer. Fluorescence was measured using a Becton Dickinson FACS Canto II-HTS equipment and plotted against antibody concentration.

[2] = target: T2, human CD40-Fc protein (amino acid residue 21-193 of SEQ ID NO: 67 linked to N-terminus of amino acid residue … (human, biotin-labeled in the capture ELISA and in the benchmark blocking ELISA; unlabeled when coated in the ligand blocking ELISA); experiment: competitive ELISA; coated human CD40-Fc, competitor biotin human CD40L-his
T2 construct: also called biotin-labeled human CD40-Fc; human CD40-Fc-biotin
Experimental: (§2) Serially diluted the mouse anti-CD40 antibodies of the present invention or the controls (starting at 200 nM with a four-fold serial dilution) in 2.5% w/v non-fatty milk in PBST were prepared to the plates and incubated with the human CD40-Fc proteins at room temperature for 40 minutes. […] Plates were washed again. 100 μl/well of streptavidin conjugated HRP was added and incubated for 40 minutes at 37° C. Plates were washed again using wash buffer. Finally, TMB was added and the reaction was stopped using 1M H₂SO₄, and the absorbance was read at 450 nm. Data were analyzed using Graphpad Prism software and IC₅₀ values were reported.

[3] = target: T2, human CD40-Fc protein (amino acid …); experiment: capture ELISA; antibody captured, biotin-labeled human CD40-Fc in solution
Experimental: (§3) Plates were washed 4 times with wash buffer (PBS+0.05% Tween-20, PBST) and then blocked with 200 μl/well blocking buffer (5% w/v non-fatty milk in PBST) for 2 hours at 37° C. […] After a final wash, plates were incubated with 100 μl/well ELISA substrate TMB (Innoreagents, Cat # TMB-S-002). The reaction was stopped in 15 minutes at 25° C. with 50 μl/well 1M H₂SO₄, and the absorbance was read at 450 nm and plotted against antibody concentration. Data were analyzed using Graphpad Prism software and EC₅₀ values were reported.

[4] = target: T1, full length human CD40 (uniprot # …); experiment: flow cytometry on 293T-CD40 cells
Experimental: as §1, with “2×10⁵ cells per well in 96 well-plates were incubated with the mouse anti-CD40 antibodies or the controls of various concentrations in FACS buffer for 40 minutes on ice. […] Following” for “Following”

[5] = target: T2, human CD40-Fc protein (amino acid …); experiment: ligand blocking ELISA: human CD40-Fc coated, antibody titrated, then biotin-labeled human CD40L-his (blocked ligand), streptavidin-HRP, OD(450-630)
Experimental: as §2

[6] = target: T2, human CD40-Fc protein (amino acid …); experiment: capture ELISA (antibody captured on coated goat anti-human IgG F(ab')2, biotin-labeled human CD40-Fc in solution, streptavidin-HRP, OD(450-630))
[7] = target: T3, cynomolgus monkey CD40-his protein (Acro biosystems, Cat # CD0-052H6) (cynomolgus monkey, UniProt G7PG38 21-193); experiment: SPR, Biacore; cynomolgus CD40-his
T3 construct: Bought reagent; also called Cynomolgus CD40-his
Description: (§4) Briefly, goat anti-mouse IgG (GE healthcare, Cat # BR100838, Mouse Antibody Capture Kit) was covalently linked to a CM5 or a Protein G chip (carboxy methyl dextran coated chip) via primary amines, using a standard amine coupling kit provided by Biacore (GE healthcare, Pittsburgh, Pa., USA). Un-reacted moieties on the biosensor surface were blocked with ethanolamine. […] Then, human CD40-his (Acro biosystems, Cat # CD0-H5228) or cynomolgus monkey CD40-his protein (Acro biosystems, Cat # CD0-052H6) in HBS EP buffer (provided by Biacore) was flowed onto the chip at a flow rate of 30 μL/min. The antigen-antibody association kinetics was followed for 2 minutes and the dissociation kinetics was followed for 10 minutes. The association and dissociation curves were fit to a 1:1 Langmuir binding model using BIA evaluation software.

[8] = target: T1, full length human CD40 (uniprot # …); experiment: cell-based or functional assay
[9] = target: T4, Human CD40-his protein (Acro biosystems, Cat # CD0-H5228) (human, UniProt P25942 21-193); experiment: SPR, Biacore; human CD40-his
T4 construct: Bought reagent; not shown: his tag
Description: as §4

[10] = target: T2, human CD40-Fc protein (amino acid …); experiment: competitive ELISA; biotin human CD40-Fc in solution, competitor coated BM2
Experimental: (§5) The ability of the mouse anti-CD40 antibodies of the present invention to block the binding of the Benchmark to human CD40 was measured using a competitive ELISA assay. […] The next day, plates were washed with wash buffer, and blocked with 5% w/v non-fatty milk in PBST for 2 hours at 37° C. Plates were then washed again using wash buffer. […] After incubation at 37° C. for 40 minutes, plates were washed 4 times using wash buffer. Then streptavidin conjugated HRP was added and incubated for 40 minutes at 37° C. to detect biotin-labeled human CD40-Fc bound to plates. Plates were washed again using wash buffer. Finally, TMB was added and the reaction was stopped using 1M H₂SO₄, and the absorbance was read at 450 nm. Data were analyzed using Graphpad Prism software and IC₅₀ values were reported.

[11] = target: T2, human CD40-Fc protein (amino acid …); experiment: benchmark blocking ELISA: BM2 (Selicrelumab) coated as competitor, antibody titrated in biotin-labeled human CD40-Fc solution, streptavidin-HRP, OD(450-630)
Experimental: as §5

[12] = target: T4, Human CD40-his protein (Acro …); experiment: SPR, Biacore; antibody captured, human CD40-his flowed
Description: as §4

[13] = target: T1, full length human CD40 (uniprot # …); experiment: cell-based or functional assay; remark: listed apart in the source
[14] = target: T1, full length human CD40 (uniprot # …); experiment: flow cytometry on 293T-CD40 cells; remark: listed apart in the source
Experimental: as §1, with “2×10⁵ cells per well in 96 well-plates were incubated with the mouse anti-CD40 antibodies or the controls of various concentrations in FACS buffer for 40 minutes on ice. […] Following” for “Following”

[15] = target: T2, human CD40-Fc protein (amino acid …); experiment: capture ELISA; antibody captured, biotin-labeled human CD40-Fc in solution; remark: listed apart in the source
Experimental: as §3

[16] = target: T2, human CD40-Fc protein (amino acid …); experiment: competitive ELISA; coated human CD40-Fc, competitor biotin human CD40L-his; remark: listed apart in the source
Experimental: Briefly, human CD40-Fc proteins (amino acid residue 21-193 of SEQ ID NO: 67 linked to N-terminus of amino acid residue 99-330 of SEQ ID NO.: 24) were coated on 96-well micro plates at 2 μg/mL in coating buffer (PBS) and incubated overnight at 4° C. The next day, plates were washed with wash buffer (PBS+0.05% Tween-20, PBST), and blocked with 5% w/v non-fatty milk in PBST for 2 hours at 37° C. Plates were then washed again using wash buffer.
as §2

[17] = target: T1, full length human CD40 (uniprot # …); experiment: flow cytometry on 293T-CD40 cells, PE-labeled secondary antibody, MFI
Experimental: as §1, with “2×10⁵ cells per well in 96 well-plates were incubated with the mouse anti-CD40 antibodies or the controls of various concentrations in FACS buffer for 40 minutes on ice. […] Following” for “Following”

B1: humanized antibody huC1C1-V7 (antibody, human IgG1, kappa, V domains shown)
VH: EVQLVESGGGVVQPGRSLRLSCAASGFTFSNYGMSWVRQAPGKGLEWVASISSGGDDTYYPDNVKGRFTISRDNSKNTLYLQMNSLRAEDTAVYYCTRAGGKAMDYWGQGTLVTVSS
VL: EIVLTQSPATLSLSPGERATLSCRASQSIRDNLHWYQQKPGQAPRLLIYYASQSISGIPARFSGSGSGTDFTLTISSLEPEDFAVYYCQQFNSWPLTFGQGTKVEIKR
notes: Human IgG1/kappa; also called humanized C1C1-V7
EC50 (read off the curve) [1]: ~0.3 µg/mL | IC50 [2]: 3 nM | EC50 [3]: 0.248 nM | EC50 [4]: 1.85 nM | IC50 (read off the curve) [5]: ~0.5 µg/mL | EC50 (read off the curve) [6]: ~0.04 µg/mL | Kd [7]: 4.04 nM | cell based functional assay (EC50, nM) [8]: 4.25 nM | Kd [9]: 11.3 nM | IC50 [10]: 0.111 nM | IC50 (read off the curve) [11]: ~0.02 µg/mL | Kd [12]: 11.9 nM | koff [12]: 0.00968 s⁻¹ | kon [12]: 814000 M⁻¹ s⁻¹

B2: mouse anti-CD40 monoclonal antibody 1B2 (antibody, V domains shown)
VH: EVQLQQSGPELVKPGASVKMSCKASGYTFTDYVMHWVKQKPGQGLECIGYINPYNDGTKYNEKFKGKATLTSDKSSSAAYLELSSLTSEDSAVYYCARGFLRESWFGYWGQGTLVTVSA
VL: DVLMTQTPLSLPVSLGDQASISCRSSQNIVHSNGNTYLDWYLQKPGQSPKLLIYKVSNRFSGVPDRFSGSGSGTDFTLKINRVEAEDLGVYYCFQGSHVPPTFGAGTKLELK
notes: Purified from hybridoma supernatant; also called Mouse 1B2
Cell-based Reporter assay (EC50, nM) [13]: 6.36 nM | EC50 [14]: 2.54 nM | EC50 [15]: 47.1 nM | IC50 [16]: 315 nM | IC50 [10]: 4.76 nM | EC50 (read off the curve) [17]: ~3 nM
